Consider 1 molecule from patent US7097986 (dated 2006).

The test addresses T1, VEGFR-1/Ig (human, UniProt P17948).
T1 chain: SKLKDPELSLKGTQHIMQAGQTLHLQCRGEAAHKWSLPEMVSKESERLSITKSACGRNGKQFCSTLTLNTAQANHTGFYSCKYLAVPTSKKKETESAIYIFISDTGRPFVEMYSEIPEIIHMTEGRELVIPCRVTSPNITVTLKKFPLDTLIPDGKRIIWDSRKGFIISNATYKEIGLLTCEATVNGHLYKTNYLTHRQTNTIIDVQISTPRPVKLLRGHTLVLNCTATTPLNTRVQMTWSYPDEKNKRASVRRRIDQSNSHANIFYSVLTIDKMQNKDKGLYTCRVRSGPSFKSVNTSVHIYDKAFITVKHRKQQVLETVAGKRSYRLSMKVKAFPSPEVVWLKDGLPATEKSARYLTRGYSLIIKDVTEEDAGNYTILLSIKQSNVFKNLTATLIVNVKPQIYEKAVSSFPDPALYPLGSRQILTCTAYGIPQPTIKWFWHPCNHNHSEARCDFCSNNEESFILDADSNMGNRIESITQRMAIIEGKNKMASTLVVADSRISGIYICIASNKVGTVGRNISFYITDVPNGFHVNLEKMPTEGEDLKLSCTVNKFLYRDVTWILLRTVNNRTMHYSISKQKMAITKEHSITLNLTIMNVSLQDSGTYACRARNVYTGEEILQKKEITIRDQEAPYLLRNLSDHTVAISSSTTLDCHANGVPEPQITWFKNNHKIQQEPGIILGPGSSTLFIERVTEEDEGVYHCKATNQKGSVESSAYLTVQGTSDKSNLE
In words: ELISA. (In general: An ELISA detects its analyte on a solid surface through an enzyme-linked reagent.)

B1: VEGF-DΔNΔC (protein)
chain: FYDIETLKVIDEEWQRTQCSPRETCVEVASELGKSTNTFFKPPCVNVFRCGGCCNEESLICMNTSTSYISKQLFEISVPLTSVPELVPVKVANHTGCKCLPTAPRHPYS
As for B1, the binding result is “no binding”.
